One substance from article PMC11326647, “In vitro reconstitution reveals membrane clustering and RNA recruitment by the enteroviral AAA+ ATPase 2C” (PLOS Pathogens, 2023) can be followed below.

For the assay, the target named is His6-MBP-tagged poliovirus 2C([change]) (residues 1-11, 41-329) (poliovirus type 1 Mahoney) (UniProt P03300). Briefly: mass photometry.

Take “His6-MBP-tagged poliovirus 2C([change]) (residues 1-11, 41-329) (from UniProt P03300 1128-1456) (natural protein)”: the stoichiometry N worked out at 2.

Broadly, the stoichiometry N is the number of molecules, sites or subunits per partner or assembly.
